# Assay results reported in patent publication US20200157194A1 (Regeneron, published 2020).
# Where a chain is given by its changes, count along the chain named.
# T1: recombinant human GREM1 (hGREM1-His; C-terminal 10His tagged, R&D, #5190-GR) (human, UniProt O60565 25-184, limits assumed)
# T1 sequence: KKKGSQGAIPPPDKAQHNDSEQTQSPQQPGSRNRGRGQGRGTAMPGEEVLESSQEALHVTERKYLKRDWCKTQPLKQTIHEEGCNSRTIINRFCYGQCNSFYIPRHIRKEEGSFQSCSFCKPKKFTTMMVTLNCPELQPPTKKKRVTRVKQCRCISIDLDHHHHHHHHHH
# T2: human GREM1 (hGREM1-His; SEQ ID NO: 595) (human, UniProt O60565 25-184)
# T2 construct: also called biotin-hGREM1-His; recombinant human GREM1 protein
# T2 sequence: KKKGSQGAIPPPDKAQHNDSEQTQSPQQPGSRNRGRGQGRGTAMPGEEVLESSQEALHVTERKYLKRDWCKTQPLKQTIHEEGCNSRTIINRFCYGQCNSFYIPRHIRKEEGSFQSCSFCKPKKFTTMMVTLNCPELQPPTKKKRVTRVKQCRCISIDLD
# B1: H4H6238P (antibody, human IgG4, V domains shown)
# VH: QVQLVESGGGLVKPGGSLRLSCAASGFTFSDYYMSWIRQAPGKGLEWVSYIGTRGSSIYYADSLKGRFTISRDNAKNSLYLQMNSLRAEDTAVYYCARDPTGTSYFDYWGQGTLVTVSS
# VL: not shown
# notes: H4H prefix = human IgG4 Fc
# B2: H4H6233P (antibody, human IgG4, V domains shown)
# VH: QVQLVESGGGVVQPGRSLRLSCAASGFTFSSYGMHWVRQAPGKGLEWVAVIWYDGSNYYYAASVKGRFTISRDNSENTLYLQMNRLRAEDTAVYYCAREGTGSTEDYFDYWGQGTLVTVSS
# VL: EIVLTQSPATLSLSPGERATLSCRASQSVSSFLAWYQQKPGQAPRLLIYDASNRATGIPVRFSGSGSGTDFTLTISSLEPEDFAVYYCQQRSNWPPYTFGQGTKLEIK
# notes: H4H prefix = human IgG4 Fc
# B3: H4H6243P (antibody, human IgG4, V domains shown)
# VH: QVQLVQSGAEVKKPGASVKVSCKVSGYTLTELSMHWVRQAPGKGLEWMGGFDPEDGETIYAQKFQDRVTMTEDTSTDTAYMELSSLRSEDTAVYYCVTDDYEILPEYPYNMDVWGQGTTVTVSS
# VL: DIQMTQSPSSLSASVGDRVTITCRASQSISTYLNWYQQKPGKAPKLLIYAASSLQSGVPSRFSGSGSGTDFTLTIRSLQPEDFATYYCQQSHITPFTFGPGTKVDIK
# notes: H4H prefix = human IgG4 Fc
# B4: H4H6250P (antibody, human IgG4, V domains shown)
# VH: QVQLVESGGGVVQPGRSLRLSCAASGFTFSNYGMHWVRQAPGKGLEWVAVIWYDGSNKYYADSVKGRFTISRDNSRKTLYLQMNSLRAEDTAIYYCTRDDYGDYDYPFDYWGQGTLVTVSS
# VL: DIQMTQSPSSLSASVGDRVTITCRASQGIRNDLGWYQQKPGKAPKRLIYAASSLQSGVPSRFSGTGSGTEFTLTISSLQPEDFATYYCLQHNSYPPFTFGPGTKVDIK
# notes: H4H prefix = human IgG4 Fc
# B5: H4H6246P (antibody, human IgG4, V domains shown)
# VH: B4 VH with N31S, V50I, K58R, K77N, I93V, T97A, D100E
# VL: B4 VL with Y36F, T65S, S93T
# notes: H4H prefix = human IgG4 Fc
# B6: H4H6252P (antibody, human IgG4, V domains shown)
# VH: B4 VH with K43R, Y53F, R76K, K77N, A88S, I93V
# VL: B4 VL with T65S, H91Y, S93T
# notes: H4H prefix = human IgG4 Fc; also called H4H6252S
# B7: H4H6245P (antibody, human IgG4, V domains shown)
# VH: EVQLVESGGGLVQPGGSLRLSCAASGFTFNSFWMSWVRQAPGKGLEWVANIKQDGSEKYYVDSVKGRFTISRDNAKNSVYLQMNSLRAEDTAVYYCARDLVTSFDYWGQGTLVTVSS
# VL: DIQMTQSPSSLSASVGDRVTITCQASQDINNYLNWYQQKPGKAPKLLIYDASYLETGVPSGFSGSGSGTDFTFTISSLQPEDIATYYCQQYDSLPYTFGQGTKLEIK
# notes: H4H prefix = human IgG4 Fc
# B8: H4H6240P (antibody, human IgG4, V domains shown)
# VH: QVQLVESGGGVVQPGRSLRLSCAASGFTFSSYGMHWVRQAPGKGLEWVAVIWYDGSNKYYADSVKGRFIISRDNSKNMMYLQMNSLRAEDTAVYYCAREDNWNYAFDYWGQGTLVTVSS
# VL: EIVMTQSPATLSVSPGERATLSCRASQSISSNLAWYQQKPGQAPRLLIYDSSTRATGIPARFSGSGSGTQFTLTISSLQSEDFALYYCQQYSNWPPFTFGPGTKVDIK
# notes: H4H prefix = human IgG4 Fc
# Target: T1, recombinant human GREM1 (hGREM1-His; …)
# Assay: cell-based or functional assay
row,"IC50 [M], inhibition of hGREM1-His, W-20-17/BRE-luc luciferase (100 pM hBMP4, 10 nM hGREM1-His) [M]",Binder
1,1.1e-09,B1
2,4.1e-10,B2
3,5.4e-10,B3
4,4.4e-10,B4
5,5.6e-10,B5
6,8.2e-10,B6
7,5.3e-10,B7
8,8.1e-10,B8

# Target: T1, recombinant human GREM1 (hGREM1-His; …)
# Assay: cell-based or functional assay
# Remark: another data set of the same source
row,"hGREM1-His Inhibition IC50, M; W-20-17 cell differentiation assay (alkaline phosphatase) [nM]",Binder
1,22,B1
2,23,B2
3,5.9,B3
4,12,B4
5,6.2,B5
6,6.1,B6
7,6.1,B7
8,7.8,B8

# Target: T1, recombinant human GREM1 (hGREM1-His; …)
# Assay: BLI Octet, mAb captured, 100 nM GREM1;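 further: octet Red96 biolayer interferometry at 25 °C in pH 7.4 HEPES saline buffer, antibodies held on anti-human IgG Fc capture biosensors, then exposed to GREM1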
# Method: (§1) Binding measurements were conducted using an Octet Red96 label-free biomolecular interaction instrument (ForteBio). All experiments were performed at 25° C. using plate agitation at 1000 rpm. Solutions were made in an aqueous buffer containing 10 mM HEPES, 150 mM NaCl, 3 mM EDTA 0.05% P20, 0.1 mg/mL BSA and adjusted to pH of 7.4 (HBST buffer).
# (§2) Anti-Human IgG Fc Capture biosensors (ForteBio) were separately loaded with 50 μg/mL solutions of 24 different anti-GREM1 antibodies for 60 seconds. Following a 30 second wash, duplicate biosensors for each antibody were submerged into wells containing either 100 nM GREM1 solutions or 100 nM GREM1 solutions containing 5 μM of heparin, measuring association for 300 seconds.
Binding Signal with 30 sec Association [nm],Binding Signal with 300 sec Association [nm],Binder
0.13,0.41,B1
0.19,0.47,B2
0.3,0.47,B3
0.2,0.37,B4
0.19,0.38,B5
0.23,0.44,B6
0.23,0.41,B7
0.23,0.53,B8

# Target: T1, recombinant human GREM1 (hGREM1-His; …)
# Assay: BLI Octet, mAb captured, 100 nM GREM1 + 5 uM heparin;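 further: octet Red96 biolayer interferometry at 25 °C, antibodies captured on anti-human IgG Fc biosensors, pH 7.4 HEPES buffer with 0.1 mg/mL BSA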
Binding Signal with 30 sec Association [nm],Binding Signal with 300 sec Association [nm],Binder
0.02,0.33,B1
0.08,0.41,B2
0,0.21,B3
0.06,0.32,B4
0.06,0.34,B5
0.04,0.35,B6
0.02,0.22,B7
0.05,0.37,B8

# Target: T2, human GREM1 (hGREM1-His; SEQ ID NO: 595)
# Assay: SPR, Biacore T200, 25 C, mAb captured, hGREM1-His injected;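 further: Heparin-supplemented HBS-EP+ used as running buffer, association and dissociation phases followed, Kd computed as koff divided by kon and half-life derived from koff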
# Method: Kinetic experiments were carried out using HBS-EP+heparin [10 mM HEPES, 150 mM NaCl, 3 mM EDTA, 0.05% (v/v) surfactant P20, 10 μg/ml heparin sodium salt, pH 7.4] as both the running buffer and the sample buffer. […] Antigen-antibody association was monitored for 150 seconds while dissociation in buffer was monitored for 420 seconds. Kinetic analysis was performed using Scrubber software version 2.0a or Biacore T200 evaluation software v1.0 to determine kₐ and kd values. KD and t_{1/2} were then calculated from the experimentally determined kₐ and kd values as KD=kd/kₐ and t_{1/2}=In(2)/kd.
Kd [nM],koff [s⁻¹],kon [M⁻¹ s⁻¹],t1/2 [min],Binder
9.32,0.000225,24100,51,B1
1.88,0.000172,91300,67,B2
11.3,0.000178,15800,65,B3
3.3,0.000297,90100,39,B4
2.59,0.000192,73900,60,B5
1.02,7.58e-05,74600,152,B6
1.51,0.000117,77900,98,B7
4,0.000319,79700,36,B8

# Target: T2, human GREM1 (hGREM1-His; SEQ ID NO: 595)
# Assay: SPR, Biacore T200, 37 C, mAb captured, hGREM1-His injected;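 further: HBS-EP running buffer containing heparin, association and dissociation phases tracked, KD computed as koff over kon and half-life derived from koff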
Kd [nM],koff [s⁻¹],kon [M⁻¹ s⁻¹],t1/2 [min],Binder
16.4,0.000931,56900,12,B1
3.26,0.000512,157000,23,B2
68.7,0.000484,7050,24,B3
5.93,0.000882,149000,13,B4
3.5,0.000444,127000,26,B5
4.14,0.000459,111000,25,B6
2.53,0.000262,103000,44,B7
9.75,0.00118,121000,10,B8

# Target: T1, recombinant human GREM1 (hGREM1-His; …)
# Assay: BLI Octet, mAb captured, 100 nM GREM1 without vs with 5 uM heparin;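 further: octet Red96 biolayer interferometry at 25 °C, antibodies captured on anti-human IgG Fc biosensors, association of GREM1 measured with versus without heparin in HEPES-buffered saline, pH 7.4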
# Method: as §1, §2
Reduction in Signal from Heparin at 30 sec [nm],Reduction in Signal from Heparin at 300 sec [nm],Binder
0.11,0.08,B1
0.11,0.06,B2
0.3,0.26,B3
0.14,0.05,B4
0.13,0.04,B5
0.19,0.09,B6
0.21,0.19,B7
0.18,0.16,B8

# Target: T2, human GREM1 (hGREM1-His; SEQ ID NO: 595)
# Assay: competition ELISA, biotin-hGREM1-His (100 pM) binding to coated hBMP4
# Method: Data were analyzed using a sigmoidal dose-response model within Prism™ software. […] The absorbance values of the wells containing the highest concentration for each antibody were used to determine the percent maximum blocking.
% blocked at maximum Ab tested (20 nM) [%],IC50 [nM],Binder
64,0.97,B1
66,0.69,B2
92,< 0.025,B3
42,0.11,B4
62,1.5,B5
53,0.19,B6
96,0.036,B7
60,0.65,B8
